From US20260275317A1, “CHIMERIC ENDOLYSINS WITH ACTIVITY AGAINST STREPTOCOCCI AND STAPHYLOCOCCI” (UNIVERSITEIT GENT, priority 2023, published 2026) come the findings set out here.

For the assay, the system named is S. uberis, S. aureus, S. agalactiae and S. dysgalactiae. Nature of the assay: 2 h time killing assay in PBS and UHT-milk, relative in vitro scoring. To be noted: 0.25 μM. The class given is cell-based. Here is the method:
Concerning the time killing assay, an overnight bacterial culture was diluted 1:10 for S. uberis, S. agalactiae-& dysgalactiae or 1:100 for S. aureus in PBS or UHT-pasteurized whole cow's milk. A volume of 10 μL thereof was combined with an equal amount of chimeric endolysin in PBS (or only PBS as negative control) in triplicate and incubated in a covered 96-well microtiter plate at 37° C. for 2 h. […] Finally, these fractions were serially diluted 1:10 in PBS. 5 μL of each fraction was spotted on TSA or BHI-agar and incubated overnight at 37° C. The following day, colony forming units (CFU) were counted and converted to CFU/mL to calculate logarithmic reductions in comparison with the negative control. The relative scores were calculated by dividing the observed logarithmic reduction for each endolysin by the maximal reduction observed for that specific condition and strain. Next, this value was divided by the number of conditions and strains tested (i.e., 8=4 bacterial strains×2 conditions (PBS/UHT-milk)). As such, the best performing candidate in each individual assay received a score of 0.125 (=(1/1)/8). […] Turbidity reduction assays were performed by combining 100 μL of overnight grown bacterial cells with an equal volume of purified enzyme at the desired concentration. Bacterial cells were washed with PBS and resuspended in a 1:1 ratio with enzyme to an OD600 of approximately 1.0. Next, the OD600 was measured using a Tecan infinite 200 PRO plate reader (Tecan, Switzerland) every 15 seconds at 37° C., shaking the 96-well plate between each measurement.
Stationary phase S. uberis 0140J or S. aureus N305 and one randomly chosen clinical isolate of S. uberis, S. aureus, S. agalactiae and S. dysgalactiae were challenged with a final concentration of 0.25 μM endolysin in a 2 h time killing assay (TKA) in both phosphate buffered saline (PBS) and ultra-high temperature pasteurized whole cow's milk (UHT-milk).

B1: NC3: chimeric endolysin SEQ ID NO: 15; CPP + PlySs2 CHAP + Ply1081 CW_7 + PlySs9 amidase_3 (protein)
chain: MGFGCNGPWNEDDLRCRNHCKSIKGYKGGYCAKGGFVCKCYGATTVNEALNNVRAQVGSGVSVGNGECYALASWYERMISPDATVGLGAGVGWVSGAIGDTISAKNIGSSYNWQANGWTVSTSGPFKAGQIVTLGATPGNPYGHVVIVEAVDGDRLTILEQNYGGKRYPVRNYYSAASYRQQVVHYITPPGTVAQSAPNLAGAGIDQLVQETLAGKYGNGEQRKAALGSQYQAVMAVINGKATAPKKTVDQLAQEVIQGKHGNGEDRKKSLGPDYDAVQKRVTEILKGSPSGNIPKTPSDAPKSEVVNSSTEPKTEETGANGKATDTKITKGSGKHLVICGHGQGRTGYDPGAVNAKLGITEAGKVRELSKLMSKYSGQQIDFITEQNVYDYRSITSIGKGYDSITELHFNAFNGSAKGTEVLIQSSLEADKEDMAILSLLSRYFQNRGIKKVDWLYNANQAASRGYTYRLVEIAFIDNEQDMAIFENKKEDIAKGLVSAITGVEVKTIVPSPPSSTVGSSGTPSKSIYLVGDSLRVLPHATHYQTGQKIANWVKGRTYKILQVKNVHQSNSKRAYLLDGIKSWVLEQDVEGTTKGHSKYHHHHHH
For the molecule B1, the “ranking by cumulative relative in vitro score” value is given as “overall best performing candidates”.

B2: NC8: chimeric endolysin SEQ ID NO: 20; CPP + PlySs2 CHAP + Ply1081 CW_7 + PlySs9 amidase_3 (protein)
chain: MRQIKWFQNRRMKWKKGATTVNEALNNVRAQVGSGVSVGNGECYALASWYERMISPDATVGLGAGVGWVSGAIGDTISAKNIGSSYNWQANGWTVSTSGPFKAGQIVTLGATPGNPYGHVVIVEAVDGDRLTILEQNYGGKRYPVRNYYSAASYRQQVVHYITPPGTVAQSAPNLAGAGIDQLVQETLAGKYGNGEQRKAALGSQYQAVMAVINGKATAPKKTVDQLAQEVIQGKHGNGEDRKKSLGPDYDAVQKRVTEILKGSPSGNIPKTPSDAPKSEVVNSSTEPKTEETGANGKATDTKITKGSGKHLVICGHGQGRTGYDPGAVNAKLGITEAGKVRELSKLMSKYSGQQIDFITEQNVYDYRSITSIGKGYDSITELHFNAFNGSAKGTEVLIQSSLEADKEDMAILSLLSRYFQNRGIKKVDWLYNANQAASRGYTYRLVEIAFIDNEQDMAIFENKKEDIAKGLVSAITGVEVKTIVPSPPSSTVGSSGTPSKSIYLVGDSLRVLPHATHYQTGQKIANWVKGRTYKILQVKNVHQSNSKRAYLLDGIKSWVLEQDVEGTTKGHSKYHHHHHH
For the molecule B2, the “ranking by cumulative relative in vitro score” value was “overall best performing candidates”.
